A word on the Kd: it is the equilibrium constant for the complex coming apart. A low value points to tighter binding.

The target of one assay is T1, mini-HA #4900 (Influenza A virus H1N1, designed stem …, stabilised).
T1 construct: also called H1 stem-based construct; HA stem-based construct without the HA head domain; not shown: 6xHis, C-terminal, kept
The experiment in a line: BLI; His-tagged antigen at 0.5 uM loaded on anti-Penta-HIS (HIS1K) biosensors, Fab in solution; room temperature; 1x PBS pH 7.4, 0.01% BSA, 0.002% Tween 20; 1:1 binding model. The settings on record: both partners purified. On the technique in general: Biolayer interferometry detects binding as a change in optical thickness at a sensor tip.

Assay [1] has as its target T2, H1N1 A/Solomon Islands/3/2006 (SI06) HA (Influenza A virus, A/Solomon …, UniProt A7Y8I1).
T2 construct: also called HA from H1N1 A/Solomon Island/3/2006
Described as above. The settings on record: both partners purified.

B1: 310–18A5 Fab (Fab, V domains shown)
VH: QVQLMQSGTEVKKPGSSVRVSCKASGSTFNSDAISWVRQAPGQGLEWMGGILGMFRTVNYAQRFQGRVTITADELMSTAYMELSGLRFEDTAVYYCARGDGYKPNFLRYWGQGTLITVSS
VL: TLSLSPGERATLSCRASQSVSSTSLAWYQQKFGQAPRLLIYGASNRATGIPDRFSGSGSGTDFTLTISRLEPEDFAVYYCQQYGNSLTFGGGTKVEIK
As for B1, the dissociation constant Kd was 1000 pM in the assay with mini-HA #4900 and 200 pM in assay [1].

The values above are taken from paper doi:10.1101/2023.09.11.557288, “An explainable language model for antibody specificity prediction using curated influenza hemagglutinin antibodies” (bioRxiv, 2023).
